According to the nanobody polyreactivity screen of Harvey et al. (2022):

Assay: yeast display, Sf9 membrane polyspecificity reagent, FACS + sequencing; frameworks hold sequencing errors
Outline: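 Synthetic nanobody libraries on Saccharomyces cerevisiae BJ5465 were galactose-induced for 36–48 hours, stained 1 hour at 4 °C with 10% biotinylated, detergent-solubilized Sf9 membrane reagent and enriched on streptavidin microbeads. FACS then separated cells into low and high (top ~1%) gates by anti-HA (expression) and streptavidin (reagent binding) fluorescence. Genes were colony-PCR amplified, MiSeq 2 × 250 sequenced and CDR-length filtered. A clone's polyreactivity label is that of its gate of origin.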

Sequence	polyreactivity (PSR sort gate)
QVQLVESGGCLVQAGGSLRLSCAASGSTFKTYTMGWYRQAPGKERELVAAITWSGGRTYYADSGKGRFTISRDNAKNTVYLQMNSLKPEDTAVYYCAADWGEEYTRDDYCGQGTQVTVSS	low polyreactivity
QVQLVESGGCLVQAGGSLRLSCAASGSTFRYNAMGWYRPAPGKERELVAAITSSGGRTYYADSVKGRFTISRDNAKNTVYLQMNSLKPEDTAVYYCARRYLSVRGDSWGQGTQVTVSS	high polyreactivity
QVQLVESGGCLVQAGGSLRLSCAASGSTFWGYTMGWYRQAPGKVRELVAAISSDGSTNYADSVKGRFTISRDNAKNTVYLQMNSLKPEDTAVYDCNTVYDPDTGQSDSWGQGTQVTVSS	low polyreactivity
QVQLVESGGCLVQAGGSLRLSCAASGSTFYVYTMGWYTQAPGKESELVAAISWTDGDTYYADSVKGRFTISRDTAKKTVYLEMNSLKPEDTAVYYCAADIAWLWWYGPGYDYWGQGTQVTVSS	low polyreactivity
QVQLVESGGCLVQAGGSLRLSCAASGYIFFINSMGWYRQAPGKERELVAAITRRGVSTYYADSVKGRFTISRDNAKNSVYLQMHSLKPEDTAVYYCATEHNHLGYYYWGQGTQVTVSS	low polyreactivity
QVQLVESGGCLVQAGGSLRLSCAASRRIFNYYAMGWYRQAPGKERELVAAINSGGSTYADSVKGRFTISRDNAKNTVYLQMNSLKPEDTAVYYCAKDGQLLSGRERPSGYDHWGQGTQVTVSS	low polyreactivity
QVQLVESGGCLVQAGGSLRLSCAATGSIFYGNTMVWYRQAPGKDRELLAAISSGGSTKYADSVKGRFTISRDNAKNTVYLQMNSLKPEDTAVYYCAADLPRYWVTWMDYRGQGTQVTVSS	low polyreactivity
QVQLVESGGCLVQAGGSLRLSCADSGLTFTHYTKGWYRQAPGKVRELVAAITTSGGSTYYADSVKGRFTISRDNAKNTVYLQMNSLKPEDTAVYDCDSDVWYWTYIGEYWGQGTQVTVSS	high polyreactivity
QVQLVESGGCLVQAGGSLRLSCASSGRTFLVYAMGWYRQAPGKERELVAAITSGGSTYYADSVKGRFTISRDNAKNTVYLQMNSLKPEDTAVYYCAAKIRGYPRRRYDYWGQGTQVTVSS	high polyreactivity
QVQLVESGGCLVQAGGSLRLSCDASGGIFVSYAMGWYRQAPRKDRELVAAITSGGGTSYADSVKGRFTISRDNAKNTVYLQMNSLKPEDTAVYYCNADGYLAERFVIRLDEYRDYDYWGQGTQVTVSS	low polyreactivity
QVQLVESGGCLVQAGGSLRLSCDAYGSTFDDNAMGWYRQAPGKERELVAGISTNGGSTSYADSVKGRFTISRDNAKNTVYLQMNSLKPEDTAVYYCAKGLYVHFDYWGQGTQVTVSS	low polyreactivity
QVQLVESGGCLVQAGGSLRLSCPASGSNFPDNAMGRYRPAPGKERELVAAISLSGGRTYYADSVKGRFTISRDNAKNTVYLQMNSLKPDDTAVYYCNKLTRFVKYDYWGQGTQVTVSS	high polyreactivity
QVQLVESGGCLVQAGGSLRLSCSASGRIFNTYAMGWYRQAPGKERDLVARISSGGTTYYADSVKGRFTISRDNAKNTVYLQMNSLKPEDTAVYYCNVRAVTPTRSRPFRYDYWGQGTQVTVSS	high polyreactivity
QVQLVESGGCLVQAGGSLRLSCVASGRTFRRYAMGWYRQAPGKERELLSTITLNGGSTYYADSVKGRFTISRDNATNTVDLQMNSLKPEDTAVYDCKRCTNVVRRGVYSFGYDYWGEGTQVTVSS	low polyreactivity
QVQLVESGGCLVQAGGSLRLSSAASGSTFRQYAMGWYRQAPGKERELVAAITWRGDNTYYADSVKGRFTISRDNAKNSVYLQMNSLKPEDTAVYYCAARWSYRLYWGYGYWGQGTQVTVSS	low polyreactivity
QVQLVESGGCLVQAGGSLRLSWDASGSIFLGYTIGWYRQAPGKERELVAAINSSGGSTYYAYSVKGRFTISRDNAKNTVFLQMNSLKPDDTAVYYCADANSILLFDSWGQGTQVTVSS	low polyreactivity
QVQLVESGGCLVQAGGSLRLTCAASGYIFANNARGWYRQAPGTERELVAAISSSGGRTYYADSVKGRFTISRDNAKNTVYLQMNSLKPEDTAVYYCAAESVDNIYYGFDYWGQGTQVTVSS	high polyreactivity
QVQLVESGGCLVQAGGSLSLSCAASGSIFGWYVMGWYRQAPGKERELGAAISSVGSTYYADSVKGRFTISRDNAKNTVYLQMNSLKPEDTAVYYCAKLRYPYLFSDDSEYWGQGTQVTVSS	low polyreactivity
QVQLVESGGCLVQAQGSLRLSCAASGFTFGYNAMGWYRQAPGKERELVAVISSRGGRTYYADSVKGRFTISRDNAKNTVYLQMYSLKPEDTAVYYCAKRSGSYSYPAVGGWGLGYCGQGTQVTVSS	high polyreactivity
QVQLVESGGCLVQPGGSLRLSCAASGRTSVRNAMGWYRQAPGKERELVAAISNGGRTNYADSVKGRFTISRGNAKNTVYLQMNSLKPQDTAVYYCAARGFWLYYHGGVRSGYDYWGQGTQVTVSS	high polyreactivity
QVQLVESGGFLVQAGGSLRLSCDASGSILADTSLGWYRQAPGKERELVAAISRRGGRTYYADSVKGRFTISRDNAKNTVYLQMNSLKPEDTGGYYCAAVGSFHIGDYWGLGTQVTVSS	high polyreactivity
QVQLVESGGGCVQAGGSLRLSCAASGFIFEQNAKGWYRQARGKEWELVARISWRGGSTYYADSEKGRFTISRDKAKITVYLQMNSLKPEDSAVYYCNAHEVDYFGYYPSDYWGQGTQVTVSS	low polyreactivity

Sequence	polyreactivity (PSR sort gate)
QVQLVESGGGFFQAGGSLRLSCAASGTIGRNAMGWYRQAPGKESEFVPAISYRGTSTYYADSVKGRFTISRDNAKNTVYLQMKSLKPDDTAVYYCATYWAAGYRSRYDYWGQVTQVTVSS	high polyreactivity
QVQLVESGGGFVQAGASLRLSCAASGSIFRIYAIGWYRQAPGKERELVAAIDSGGSTNYADSVKGRFTISRDNAKNTVYLQMNSLKPEDTAVYYCNVDAWWLSYSEYDYWGQGTQVTVSS	high polyreactivity
QVQLVESGGGFVQAGGRLRLSCAASGRIFWMNAMGWYRQAPGKETEFVASITYGSDSTYYADSVKGRFTISRDNAKNTVYLQMNSLKPEDTAVYYCNREGWHYGPYGYWGQGTQVTVSS	low polyreactivity
QVQLVESGGGFVQAGGSLGLSCAASGSTFQFYALGWYRQAPGKERELVAVITSGDDTNYADSVKGRFTISRDNATYTVYLQMNSLKPEDTAVYYCAVEYILVYTRVRSYWFDYWGQGTQVTVSS	low polyreactivity
QVQLVESGGGFVQAGGSLPLSCAASGRTFGPYAMRWYRQAPGKERELVAAISSSDGSTYYADSVKGRFTISRDNAKNTVYLQMNSLKPEDTAVYYCNARYYLWSTTRWYGYDYWGQGTQVTVSS	high polyreactivity
QVQLVESGGGFVQAGGSLRLRCAASGLIFAPYAMGWYRQAPGKEREFVAAITRSDGSTYYADSVKGRFTISRDNAKNTVYLQMNSLKPEDTAVYYCAAEPDTYWYTYDYWGQGSQVTVSS	low polyreactivity
QVQLVESGGGFVQAGGSLRLSCAACGSTFATYGMGWYRQAPGKERELVADITSGGSTYYADSVKGRFTISRDNAKNTVYLQMNSLKPEDTAVYSCNAPYGGPYYIQYDYWGQGTQVTVSS	low polyreactivity
QVQLVESGGGFVQAGGSLRLSCAASGFIFAVNAMGWYRQAPGKERELVAAISSSGTTNYADSVKGRFTISRDNAKNTVYLQMNSLKPEDTAVYYCNKRWRDKYPQYDYWGQGTQVTVSS	low polyreactivity
QVQLVESGGGFVQAGGSLRLSCAASGFIFTKYAMGWYRQAPGKERELVAAIRGSGGSTYYADSVKGRVTISRDNAKNTVYLQMNSLKPEDTAVYYCAAERSLGYDYWGQGTQVTVSS	high polyreactivity
QVQLVESGGGFVQAGGSLRLSCAASGFTFWVYAMGWYRQAPGKERELVAGITWSGGSTSYADSVKGRFTISRDNAKNTVYLQMNSLKPEDTAVYYCAADDFGYPDDMNYWGQGTQVTVSS	low polyreactivity
QVQLVESGGGFVQAGGSLRLSCAASGFTFYRNAMGWYRQAPGKERELVAAITWSGTSTYYADSVKGRFTISRDNAKTTVYVQMNSLKPEDTAVYYCNTVGYRGRSNSRFYYWGQGTQVTVSS	high polyreactivity
QVQLVESGGGFVQAGGSLRLSCAASGHIFFYYTKGWYRQAPGKERELVAGITIGGSTNYADSVKGRFTISRDNAKNSVYLQMNSLKPEDTAVYYCYVVLYVSIYSYGEYYYWGQGTQVTVSS	low polyreactivity
QVQLVESGGGFVQAGGSLRLSCAASGRIFVVNAMLWYRPAPAKESEFVAAISRSGGSTYYADSVKGRFTISRDKATNTVYLQMNSLKREDTAVYYCAADIVGFRTSGTYEYWGHGTQVTVSS	low polyreactivity
QVQLVESGGGFVQAGGSLRLSCAASGSTFKTYTLGWYRQAPGKDRELVAGITSGGSTSYADSVKGRFTISRDNAKNTVYLQMNSLKPEATAVYYCNADAYLVIYFYTVRDYGYDYWGQGTQVTVSS	low polyreactivity
QVQLVESGGGFVQAGGSLRLSCAASGSTFRWNAMGWYRHAPGKERELDASITAGGSTNYADSVKGRFTISRDNAKNTVYLQINSLTPEDTAVYYCNADVRRSTYYVWLYDYWGQGTQVTVSS	low polyreactivity
QVQLVESGGGFVQAGGSLRLTCAASGRTFAKNTMGWYRQAPGKERELVAAITWRGGTTYYADSVKGRVTISRDNAKNTVYLQMNSLKPEDTAVYYCAKDRYYGYFRSRSDYWGQGTQVTVSS	high polyreactivity
QVQLVESGGGFVQAGGSRRLSCAASGRIFDDNAMGGYRPAPGKERELVAAISSGDYTKYADSVKGRFTISRDNSKNSVYLQMNSLKPEDTAVYYCAADIVSDSFYQPEYDYWGQGTQVTVSS	low polyreactivity
QVQLVESGGGIFQAGGSLRLSCAASGFTFQYYAMGWYRQAPGKERELVAAISRRGGRTDYADSVKGRFTISRDNAKNTVYLQMNSLKPEDTAVYYCAAAVASPYDYWGLGTQVTVSS	high polyreactivity
QVQLVESGGGIVQAGCSLRLSCAASGFTFERYTMGWYRQAPGKERELVATISRRSGRTSYADSVKGRFTISRDNAKNTVYLQMNSLNPEDTAVYYCAVDDAYPDRYDYWGQGTQVTVSS	high polyreactivity
QVQLVESGGGIVQAGGILRLSCAASGSTFAGNGMGWYRQAPGKERELVAGIDVTGGSKYYADSVKGRYTISRDNAKNTVYLQMNSLKPEDTAVFDCNARYVYHSSFAGFDYWGQGTQVTVSS	low polyreactivity
QVQLVESGGGIVQAGGRLRKSCAASGRTFDSNAMGWYRQAPGKERELVAGISESGGSTYYADSVKGRFTISRDNAKNTVYLQMNSLKPEDTAVYYCDYSGITVYYHRAVDFIVSYDYWGQGTQVTVSS	low polyreactivity
